Measurements as given in patent US20220002363A1, “COMPOSITIONS AND METHODS FOR TREATING PULMONARY DISEASE” (United States Government As Represented By The Department …, priority 2020, published 2022).
Residue numbers refer to the chain shown, from its start. Where a SMILES comes first, the peptide text is derived from it. The star is where a group is joined. Cbz = O=C(OCc1ccccc1)*; CH2F = FC*

Tests used:
HPAEpiC = details: cited from earlier work
LA4 monolayer = details: LA4 cells; cited from earlier work
biotinylated WT-sFasL = biological target: T1, biotinylated WT-sFasL (human, UniProt P48023 103-281, biotinylated with EZ-Link Sulfo-NHS-LC-Biotin (sites not given)); assay: mixture captured on streptavidin-coated wells, detected with HRP anti-FLAG antibody
T1 construct: range 103-281; Same protein as WT-sFasL, chemically biotinylated; also called biotinylated wild type sFasL
T1 sequence (looked up): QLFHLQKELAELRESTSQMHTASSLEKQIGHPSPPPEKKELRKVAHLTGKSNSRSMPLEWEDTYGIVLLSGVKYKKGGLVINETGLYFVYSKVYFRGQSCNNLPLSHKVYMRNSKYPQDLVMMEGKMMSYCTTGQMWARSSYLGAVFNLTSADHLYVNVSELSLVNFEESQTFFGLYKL
Experimental: (§1) Serial 3-fold dilutions of FLAG tagged mut-sFasL were mixed with biotinylated WT sFasL (60 ng). The mixtures were incubated at room temperature for 15 minutes and applied to streptavidin-coated wells. FLAG tags were detected with HRP anti-FLAG mAb. There was a dose-dependent increase in FLAG signal in wells incubated with the biotinylated WT sFasL+ and the mut-sFasL-FLAG mixture, showing the formation of complexes of WT and mut-sFasL. […] Data shown as ratio of the absorbance at 450 nm of each experimental condition to that of media only. Data were generated from three separate experiments, each done in duplicate, and were analyzed by 2-way ANOVA with Dunnet's post hoc analysis; comparisons were made to 0 ng/mL for each condition. Each dot represents individual data, lines represent means±SD. *=P<0.05; **=P<0.01, ***P<0.001.
The mut-sFasL forms complexes with WT sFasL. In order to be active, sFasL must form trimers or higher order multimers. Therefore, it was tested whether the mut-sFasL forms complexes with WT-sFasL. The mixture was incubated in streptavidin-coated well to capture the biotinylated WT-sFasL. After washing unbound material, FLAG was detected using an anti-FLAG antibody, which would detect FLAG-tagged mut-sFasL complexed with biotinylated WT-sFasL. […]

biotinylated WT sFasL [1] = biological target: T2, biotinylated WT sFasL (Homo sapiens, UniProt P48023); assay: Complex formation of FLAG tagged mut-sFasL with biotinylated WT sFasL on streptavidin-coated wells; assay type: binding; details: fixed biotinylated WT sFasL (60 ng), increasing FLAG-tagged mut-sFasL
T2 construct: biotin (chemical label, EZ-Link Sulfo-NHS-LC-Biotin); made in house; host or cells: FreeStyle 293-F cells
T2 sequence (P48023 103-281): T1 sequence (looked up)
Experimental: as §1, with “mAb.” for “mAb. There was a dose-dependent increase in FLAG signal in wells incubated with the biotinylated WT sFasL+ and the mut-sFasL-FLAG mixture, showing the formation of complexes of WT and mut-sFasL.”
(§2) Antibodies and Reagents. To prepare immunoaffinity columns, mouse monoclonal anti-human FasL antibodies, clone 100419 (R&D System, Cat #MAB126, RRID:AB 2246667, Minneapolis, Minn.), were used. For the Fas-FasL binding assay, recombinant human soluble Fas receptors (PeproTech, Rocky Hill, N.J.) and biotinylated goat anti-human FasL antibodies (PeproTech Cat #500-P184bt-50 ug, RRID:AB 148184) were used. Mouse anti-human Fas (CD95) monoclonal IgM antibody, clone CH-11 and its isotype control antibody, clone 3D12, were obtained from MBL, Nagoya, Japan (MBL International Cat #SY-001, RRID:AB 591016 and Cat #M077-3, RRID:AB 593057, respectively). FLAG tagged mut-sFasL was detected using HRP anti-FLAG monoclonal antibody (Sigma-Aldrich, Cat #A85920). Unless otherwise indicated, the other chemicals were purchased from Sigma-Aldrich (St. Louis, Mo.).
(§3) Biotinylation of sFasL. Immunoaffinity purified WT-sFasL was biotinylated with No-Weight Format EZ-Link Sulfo-NHS-LC-Biotin (Pierce, Rockford, Ill., Cat #21327) following the manufacturer's instructions. To capture biotinylated WT-sFasL in the mixtures of biotinylated WT-sFasL and mut-sFasL-FLAG, Streptavidin-variant (Strep-Tactin XT) coated 96-well plates (iba, Gottingen, Germany, Cat #2-4101-001) were used.
(§4) The mut-sFasL forms complexes with WT sFasL. […] After washing unbound material, FLAG was detected using an anti-FLAG antibody, which would detect FLAG-tagged mut-sFasL complexed with biotinylated WT-sFasL.

biotinylated WT sFasL [2] = assay: as above; assay type: binding, human; details: FLAG-tagged mut-sFasL by itself
Experimental: as §1, with “mAb.” for “mAb. There was a dose-dependent increase in FLAG signal in wells incubated with the biotinylated WT sFasL+ and the mut-sFasL-FLAG mixture, showing the formation of complexes of WT and mut-sFasL.”
as §2, §3, §4

recombinant human Fas = biological target: T3, recombinant human Fas (Homo sapiens, UniProt P25445); assay: Competition assay: binding of biotinylated WT sFasL to plate-coated recombinant human Fas; details: biotinylated WT-sFasL 70 ng/mL, Fas coated at 250 ng/mL, serial 3-fold dilutions
T3 construct: recombinant human soluble Fas receptors (PeproTech, Rocky Hill, N.J.); purchased PeproTech
T3 sequence (P25445 26-173 limits assumed): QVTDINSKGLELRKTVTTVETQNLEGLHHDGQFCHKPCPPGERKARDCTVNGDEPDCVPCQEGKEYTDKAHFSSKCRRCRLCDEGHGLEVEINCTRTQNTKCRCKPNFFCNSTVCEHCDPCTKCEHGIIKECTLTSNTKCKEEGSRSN
Experimental: The mixtures were incubated for 2 hours in 96-well plates pre-coated with recombinant hsFas (250 ng/ml). After washing unbound material, biotin was detected using HRP conjugated Streptavidin. […] The sFasL bound to Fas was detected using polyclonal anti-human FasL antibodies. […] Different molar ratios of the Fas-activating antibody CH-11 and mut-sFasL were added, and caspase 3/7 activity measured after 5 hours. […] Data represent the results from three separate experiments, each done in duplicate, and were analyzed by 2-way ANOVA with Sidak's post hoc analysis. […] Each dot represents individual data; lines represent means±SD. *=P<0.05; **=P<0.01, ***P<0.001.
Antibodies and Reagents. […] FLAG tagged mut-sFasL was detected using HRP anti-FLAG monoclonal antibody (Sigma-Aldrich, Cat #A85920). […]
WT-sFasL inhibition occurs prior to receptor binding. […] Recombinant human Fas at 250 ng/mL were coated and the binding of a fixed concentration of biotinylated WT-sFasL (70 ng/mL) were measured in the presence of serial 3-fold dilutions of either WT-sFasL or mut-sFasL. […] Serial dilutions of either WT-sFasL or mut-sFasL were incubated in wells coated with recombinant human Fas, 5 μg/mL, and after washing, detected sFasL bound to Fas using polyclonal anti-FasL antibodies. […]

COC(=O)CC[C@H](NC(=O)[C@H](CC(=O)OC)NC(=O)OCc1ccccc1)C(=O)N[C@H](C(=O)N[C@@H](CC(=O)OC)C(=O)CF)C(C)C [zDEVD.fmk, reference compound]
reversal of sFasL effect on monolayer permeability and ZO-1/occludin expression (HPAEpiC; HPAEpiC, pretreatment): reversed the effect of sFasL on HPAEpiC monolayer permeability and ZO-1/occludin expression

CC(NC(=O)C(NC(=O)OCc1ccccc1)C(C)C)C(=O)NC(CC(=O)O)C(=O)CF (stereo not drawn) [zVAD] (Cbz-Val-Ala-Asp-CH2F; configuration not given here)
reversal of cell death and monolayer permeability induced by Jo2 (LA4 monolayer): reversed cell death and monolayer permeability induced by Jo2

B1: FLAG tagged mut-sFasL (ligand, human, UniProt P48023 103-281, looked up)
chain: T1 sequence (looked up) with H4A, K7A, E8A, E11A, R13A, E14A, H20A, E26A
notes: range 103-281; C-terminal FLAG tag; also called mut-sFasL-FLAG; 8-mut sFasL-FLAG; not shown: FLAG tag fused in frame after amino acid 281
binding result (biotinylated WT-sFasL): binds

B2: mut-sFasL-FLAG: 8-mut sFasL with FLAG tag at the 3′-end of the 281th amino acid coding sequence (protein)
chain: T1 sequence (looked up) with H4A, K7A, E8A, E11A, R13A, E14A, H20A, E26A
modifications: left off: small tags and cut ends
FLAG signal (complexes with WT sFasL) (biotinylated WT sFasL [1]): dose-dependent increase in FLAG signal | binding to streptavidin-coated plate without biotinylated WT sFasL (biotinylated WT sFasL [2]): did not bind to the streptavidin-coated plates | binding to streptavidin-coated plate without biotinylated WT sFasL (biotinylated WT sFasL [2]; listed as FLAG-tagged mut-sFasL): did not bind to the plate, even at high concentrations

B3: WT-sFasL: wild type human soluble Fas ligand, amino acids 103 to 281, expressed in FreeStyle 293-F cells (protein, UniProt P48023 103-281, looked up, fragment)
chain: T1 sequence (looked up)
caspase 3 induction (HPAEpiC; HPAEpiC exposed to long form of sFasL): induced caspase 3 | effect of increasing competitor concentration on binding of biotinylated WT-sFasL to Fas (recombinant human Fas): binding of biotinylated WT-sFasL to Fas decreased
